The values that follow come from article PMC9485244.

Assay [1] has as its target TatB^mNeon (E. coli TatB C-terminally tagged with mNeonGreen) (E. coli) (UniProt P69425). As to the kind of experiment: single-molecule photobleaching step counting; individual CellMask-positive IMVs adsorbed on plasma-cleaned coverslips, narrow-field epifluorescence (488 nm), 50 mM Tris-HCl, 150 mM NaCl, pH 7.5; step histograms (manual and PDD) fit to oligomer models (monomer to octamer) with Poisson distribution of complexes in IMVs and binomial fluorescence detection efficiency; copies per Tat receptor complex.

In assay [2] the target is TatC^mNeon (E. coli TatC C-terminally tagged with mNeonGreen) (E. coli) (UniProt P69423). The description is as above.

Consider “TatB^mNeon (E. coli TatB C-terminally tagged with mNeonGreen) (from UniProt P69425 1-171) (natural protein)”, for which the stoichiometry N (copies per receptor complex) in assay [1] came out at 4.
Turning to “TatC^mNeon (E. coli TatC C-terminally tagged with mNeonGreen) (from UniProt P69423 1-258) (natural protein)”, in assay [2], the stoichiometry N (copies per receptor complex) is 4.
